We go through 20 sequences from the DeepSol protein solubility set.

The data set in a line: soluble on expression in E. coli; label from the status in PepcDB or PDB records.
Take “MFHCKGLYMSDQNDKLKNLKTSSMDRRLSIAKASLLAGTRWATASATSMFSSEAEKEKKRKKAMTEQANYLVSEIGKLKGSIVKIGQMMALYGEHFLPEEITQALNTLNNQTVALAWPAIKAHLQEQLGSKLDDLIIDHEPIGTASLAQVHRATRKSDGLELVLKIQYPGVAEAIDSDMSLFKNMLKLTRMVPQTREFDQWFDEVREMMHREVSYDIEAATTRRFAERLKTDPRYAVPQIIDAYCTTKILCMTFERGVPINSPVMLSLPQERRNKLGEASLEIAVREIFEWGEMQTDPNFGNYLVRLGNGTDIQDKIVLLDFGAIRQFDEHLLSVARNLIRAGYNHSNEEMVRAMTGYSFFDSIPESIKPDMAKVFLLATEAFSCPENNPDMPTGLMDEDNRYDWKKSQLHSRVMQQASKSMASRYFSVPPKEFMFISRKFIGAYTFMTVIEAKTNVRRMISHFVKLEHHHHHH”: the “soluble on expression in E. coli” value is “not soluble”.

Take “MFIKAERLLIRKFEFKDWEAVHEYTSDSDVMKYIPEGVFTEEDTRNFVNKNMGENAKNFPVILIGENILVGHIVFHKYFGEHTYEIGWVFNPKYFNKGYASEAAQATLKYGFKEMKLHRIIATCQPENTPSYRVMEKIGMRREGYFKKCIPHGNEWWDEYYYAILEEE”: the “soluble on expression in E. coli” value is recorded as “soluble”.

With “MFILKDVTYKDILHIPYLQIQKEKITCIIGESGSGKSTLLRMLNDLQSPTSGIIEYNGKLISDYPPIQLRRDVVMLGQTPPIFDGTIKDNLLMGLRLSEKPFPNDDILRSALKTISLEKNLEDNADSLSGGEKQRLAFARIVLMDPPVYLLDEPTSALDSDTERRVMKQFTTLAREKKKTVIFITHSQQLPEEIADDIIEISKANGATRKEVLSVEGRY”, the “soluble on expression in E. coli” value is on record as “not soluble”.

On to “MFILSKIADLVRIPPDQFHRDTISAITHQLNNKFANKIIPNVGLCITIYDLLTVEEGQLKPGDGSSYINVTFRAVVFKPFLGEIVTGWISKCTAEGIKVSLLGIFDDIFIPQNMLFEGCYYTPEESAWIWPMDEETKLYFDVNEKIRFRIEREVFVDVKPKSPKERELEERAQLENEIEGKNEETPQNEKPPAYALLGSCQTDGMGLVSWWEHHHHHH”, for which the “soluble on expression in E. coli” value is “soluble”.

As to “MFIQTEPTPNPATLKFIPGRSVLDSGTLEFTDASQAARSPLAARLFDIDGVSGVFYGTDFVTVTKDKGEWQHLKPAILGAIMEHYMSGTPILADGKSDGEDGDDDEFYADADAETVEIIKDLIETRVRPAVANDGGDITFRGFKDGIVYLNMRGACAGCPSSTATLQHGIQNLLKHFVPEVVEVRPVT”, the “soluble on expression in E. coli” value was “not soluble”.

Take “MFISDKSRPTDFYKDDHHNSSTTSTTRDMMIDVLTTTNESVDLQSHHHHNHHNHHLHQSQPQQQILLGESSGEDHEVKAPKKRAETWVQDETRSLIMFRRGMDGLFNTSKSNKHLWEQISSKMREKGFDRSPTMCTDKWRNLLKEFKKAKHHDRGNGSAKMSYYKEIEDILRERSKKVTPPQYNKSPNTPPTSAKVDSFMQFTDKGFDDTSISFGSVEANGRPALNLERRLDHDGHPLAITTAVDAVAANGVTPWNWRETPGNGDDSHGQPFGGRVITVKFGDYTRRIGVDGSAEAIKEVIRSAFGLRTRRAFWLEDEDQIIRCLDRDMPLGNYLLRLDDVCKTHLAGLAIRVCHYDESNQLPVHSEEKIFYTEEDYREFLARQGWSSLQVDGFRNIENMDDLQPGAVYRGVR”: the “soluble on expression in E. coli” value is reported as “soluble”.

Turning to “MFIYCIPLISQSMIPMALDKTINVMKVTGMFAATYFTGDNRTPFFAFIICLKSFKLENMDQPPKNKSNIFPAVEDSLLLEHHHHHH”, the “soluble on expression in E. coli” value is on record as “not soluble”.

With “MFKGSIPALITPFTDNGSVDEKAFAAHVEWQIAEGSNGLVPVGTTGESPTLSHDEHKRVVELCIEVAAKRVPVIAGAGSNNTDEAIELALHAQEAGADALLVVTPYYNKPTQKGLFAHFSAVAEAVKLPIVIYNIPPRSVVDMSPETMGALVKAHKNIIGVKDATGKLDRVSEQRISCGKDFVQLSGEDGTALGFNAHGGVGCISVTANVAPRLCSEFQAAMLAGDYAKALEYQDRLMPLHRAIFMEPGVCGTKYALSKTRGGNRRVRSPLMSTLEPATEAAIDAALKHAGLMN”, the “soluble on expression in E. coli” value is recorded as “not soluble”.

“MFKRVGIFVALVTLSLIFNQPATAGRTVEDFQVWGNITALGNFGFVNPGNPDLKKFRWWMEGQGRFGNDSSQFTQAIIRPGLGYAITDKIIIWAGYAWIPSDEPLVPKSGLPFDEHRIWQQVTWADEFSFGKLSLRSRFEQRFFDHNAPVSGSDDVAYRFRQLVKLAIPVAMIDPNLTFIIQNELFIGLNTVSNPGFISRGFDQNRAFVGLGYKVHQNATVELGYMNQFIDRRHNPRPDQMMHNFAVNLFLNF”: the “soluble on expression in E. coli” value is “not soluble”.

Turning to “MFKTIDTNQKDVKLTVFSSDEKSFMVTATLVEKAGHAFLINSKFTQSDSKEIVEYLKKNNLSLDKIFIIHGDPDYYFGLESIKAVYPEAIAYATESTVEHIVHSVLGKLKVWKDALGENAPSNVVLPQVFKEKAIDFQGLTFELVGLEHYRTSLFNKELKVLIGGIDVFNEIHVFLADTSSKAAMEAWIENLKVLQALHADIIVPSHGSIEKSLNNQALTATMDYLRTAVQASEESGTSKDFVAKLEAAYPDYANKGVLELSAKVVTKEMPWGLEHHHHHH”, the “soluble on expression in E. coli” value is reported as “soluble”.

With “MFNHVTVLLKETVDGLDIKPDGTYVDCTLGGGGHSSYLLSQLTEGGRLIAFDQDEIAIQNAKEKFSSYGEQFITVKSNFRYLSEKLQELGITEVDGILFDLGVSSPQLDTPERGFSYHHDAPLDMRMDQDAPLTAYDVVNSWSYEQLVRIFFQYGEEKFSKQIARKIEAYRENKAIETTGELVELIKEGIPAPARRTGGHPAKRVFQAIRIAVNDELKVFEEALESAIEMVKPGGRVSVITFHSLEDRICKTTFKRNSTTPQLPPGLPIIPDEFKPKLKLITRKPILPSDIELEENNRARSAKLRIAEKR”, the “soluble on expression in E. coli” value was “not soluble”.

As to “MFNRGNTRVDVSSEPGTSGRYPERMIDQLPANYPCAKLKLDQFFLQWLSEHQDLVSTLVEDIQAGRPIHAPTAPVGPSPLSPSTAHMIFASTPPISPSKTRSPGTPLSPARRSTTTLGGSQKRGPLVSIPQFYFPTQSSNAGQGSDPATRDFLQRAEAAYKTDGGAAGLGQKAFVKMMQEVCELPSMVAYSLFKRLTGCEAGEEEGAAVPRDTFIKFWTGRGLVTAPPPKRAFDSLRPDGQDYLTFADFWPMMECVLRYHPGLEFLAETQEFQRKYAETVIHRIFYSLNKCGSGRLTFREFRSGELMDALYALDRENDINKILKFFSYEHFYVIYCKFWELDQDHDFQLDKTDLAHYSNCALSYVIVDRIFEEAPRKFKAGTPPGKMCYEDFVWFILSEEDKTTDTALTYWFRCVDLDGDGVIRPREMLYFYEEQLRRLEGWNQEPVQFEDLLCQLHDMLSPAKEGAFTLRDLKRTKPQSGLFFSSLFSLHKFVGFENRDPFAQRAEAAEFTGLSDWDKFAKIEYFRLASEDDQQDTAGGAMDTDEQI”, the “soluble on expression in E. coli” value is given as “not soluble”.

Consider “MFPLNDLSLKTQPVQLNKVTSNTESTIKQHELVSDDAIINELSSELVSCLGNGKFTPISEDSKLFNMLSEFKLLHSEYFEWGDYSLWFQDFSIYNKIGFIMIEKIRELVTHPFGINLEHHHHHH”, for which the “soluble on expression in E. coli” value is given as “not soluble”.

Turning to “MFPSFITHIQSPNSHHHYSSPSFPFSSDFLESFDESFLINQFLLQQQDVAANVVESPWKFCKKLELKKKNEKCVDGSTSQEVQWRRTVKKRDRHSKICTAQGPRDRRMRLSLQIARKFFDLQDMLGFDKASKTIEWLFSKSKTSIKQLKERVAASEGGGKDEHLQVDEKEKDETLKLRVSKRRTKTMESSFKTKESRERARKRARERTMAKMKMRLFETSETISDPHQETREIKITNGVQLLEKENKEQEWSNTNDVHMVEYQMDSVSIIEKFLGLTSDSSSSSIFGDSEECYTSLSSVRGTISAAGNSNVLTKNPN”, the “soluble on expression in E. coli” value is “not soluble”.

With “MFPVVDDVKAKELGLEVVYNLELPLRPERQIYRNLEDLLPKDVVEKVGRLDIVGDIAIISIPDELMPRKGVIVEAIRKLYPKIKVIARRGFHTGVYRVRRLEVIWGENRLQTIHKENGVLLKIDLSKVFFNPRMKGERYRLAQLIKDGERILIPFAGVLPYALVIARFRKVDIVAVELNDEAVKLAQENVLLNKDKLKGKISIIHGDVFDVLPKLPSFDRVISPTPKGVDALALTLSKAKRFLHYYDFIHEDKLGEFKEKIIKECQKQGKECKVKVRKVADYKPHVYKVCADIEIK”, the “soluble on expression in E. coli” value is on record as “soluble”.

On to “MFQSSAAPAPQTADVTNPFGNFAAPSAFPTNVPPPAAHSAPFGVQPAPQHSAAPFYANLHQAPPMQSQAPNGHQAAPFGYPNAHPDDLARMTAQMSLNQQGAPAGWNTTTSAVSNNPFGATSAPQPMYTAPMGMYQQPFGAQPMWNPAMAAYGQQYGYGQPVPPQQQHQIQLVHAAMAAKNAAQAQQAQAASADPFGL”, for which the “soluble on expression in E. coli” value is on record as “not soluble”.

Take “MFRILTINPGSTSTKLSIFEDERMVKMQNFSHSPDELGRFQKILDQLEFREKIARQFVEETGYSLSSFSAFVSRGGLLDPIPGGVYLVDGLMIKTLKSGKNGEHASNLGAIIAHRFSSETGVPAYVVDPVVVDEMEDVARVSGHPNYQRKSIFHALNQKTVAKEVARMMNKRYEEMNLVVAHMGGGISIAAHRKGRVIDVNNALDGDGPFTPERSGTLPLTQLVDLCFSGKFTYEEMKKRIVGNGGLVAYLGTSDAREVVRRIKQGDEWAKRVYRAMAYQIAKWIGKMAAVLKGEVDFIVLTGGLAHEKEFLVPWITKRVSFIAPVLVFPGSNEEKALALSALRVLRGEEKPKNYSEESRRWRERYDSYLDGILRHHHHHH”: the “soluble on expression in E. coli” value was “soluble”.

In the case of “MFRLGTTPRATTYDPDARIGEVASRFGLPTRVLIEIVRTESFQRSLARVTSGKPVVLDLRELDSDLASWIATHARLVEPALRELVRTVAPDVEPRVRFRGLPHRFRRVERIRPMDGALISIEGVVREVRGAERLEHAIVDTGSELVAVRLHGHRLGPGLRVEILGIVRSATLDALEVHKKDPIPEVHPDPAELEEFRELADKDPLTTFARAIAPLPGAEEVGKMLALQLFSCVGKNSERLHVLLAGYPVVCSEILHHVLDHLAPRGVYVDLRRTELTDLTAVLKEDRGWALRAGAAVLADGGILAVDHLEGAPEPHRWALMEAMDKGTVTVDGIALNARCAVLAAINPGEQWPSDPPIARIDLDQDFLSHFDLIAFLGVDPRPGEPEEQDTEVPSYTLLRRYLLYAIREHPAPELTEEARKRLEHWYETRREEVEERLGMGLPTLPVTRRQLESVERLAKAHARMRLSDDVEPEDVDIAAELVDWYLETAMQIPGGDEIRISSLKP”, the “soluble on expression in E. coli” value was “soluble”.

For “MFRTITSRLAFSVRQAEETVKPRIAYAQRSGRRIKEKVALMQAKRKEAGETGAPEKPGKFVLKTGKGTRDYGPAQSALRNSVLQTVTETFNRYGAETIDTPVFELRDVLMGKYGEEGGKLVYDLQDQGGELLSLRYDLTVPFARYLAMNKITNITRYQIAKVYRRDQPVMSRGRYREFYQCDFDIAGQYDLMLPEAECLGIVDELLTKLEIGEFFINLNHRLILEGMFAVSGIPAKDFKTICSSVDKLDKTPWEDVEQEMINEKFLTKEQTGKLGELVRFRELNSDLNNLELLEKMSQLPDLGQNDKFKKGAEELKVLIEYLNVDGVTTVRYEPSLARGLDYYTGAIYEAVAPKALEGTAVENSEDTAGQPVGVGSVAAGGRYDGLVKMFDSKANVPCCGVSFGIERLFAIMEARQKVAIRTTQTEVYVASAQKNLVRDRKKLVKMLRSAGIKTEMALKANPKLLTQFQYAEERRIPLAIVIGEQELKDGVVKLRNVVTRDEQTIKLDQLITAVRDTLAAL”, the “soluble on expression in E. coli” value is reported as “not soluble”.

Take “MFSAVHPDSRRDCKKYRYSQTSHQNYWFLKYSEFNLLGKRKIKGNFLHLFHAEEKVLFQSVMLKDQTAKTEKRTQEITCQLSKLANFEENNRKKLQDTERENKKLRNLINSLELKLVSSPENLPLQILFFLISENDELLERVFHFHCATFTKLSDFQLLFFPTPMYVANEYAKSGRNLWNEAIIADAIPEVSGPEAARMKQITDSIKYKESGFLIDRRVNASALIIQSNCSIFNSNF”: the “soluble on expression in E. coli” value is recorded as “not soluble”.
